± gives the standard deviation of the averaged measurements.
Test: total protein half-life in vivo (active degradation + dilution); higher = more stable protein
[1] = E. coli NCM3722 delta-clpP delta-lon delta-hslV, growth: N-lim chemostat, doubling time 6 h
[2] = E. coli NCM3722 delta-clpP, growth: N-lim chemostat, doubling time 6 h
[3] = E. coli NCM3722 delta-hslV, growth: N-lim chemostat, doubling time 6 h
[4] = E. coli NCM3722 delta-lon, growth: N-lim chemostat, doubling time 6 h
[5] = E. coli NCM3722 delta-smpB, growth: N-lim chemostat, doubling time 6 h
[6] = wild type E. coli NCM3722, growth: C-lim chemostat, doubling time 3 h
[7] = wild type E. coli NCM3722, growth: C-lim chemostat, doubling time 6 h
[8] = wild type E. coli NCM3722, growth: C-lim chemostat, doubling time 12 h
[9] = wild type E. coli NCM3722, growth: N-lim chemostat, doubling time 6 h
[10] = wild type E. coli NCM3722, growth: N-lim chemostat, doubling time 12 h
[11] = wild type E. coli NCM3722, growth: P-lim chemostat, doubling time 6 h
[12] = wild type E. coli NCM3722, growth: P-lim chemostat, doubling time 12 h

Sequence	total protein half-life in vivo [1] [h]	total protein half-life in vivo [2] [h]	total protein half-life in vivo [3] [h]	total protein half-life in vivo [4] [h]	total protein half-life in vivo [5] [h]	total protein half-life in vivo [6] [h]	total protein half-life in vivo [7] [h]	total protein half-life in vivo [8] [h]	total protein half-life in vivo [9] [h]	total protein half-life in vivo [10] [h]	total protein half-life in vivo [11] [h]	total protein half-life in vivo [12] [h]
MKLLIVEDEKKTGEYLTKGLTEAGFVVDLADNGLNGYHLAMTGDYDLIILDIMLPDVNGWDIVRMLRSANKGMPILLLTALGTIEHRVKGLELGADDYLVKPFAFAELLARVRTLLRRGAAVIIESQFQVADLMVDLVSRKVTRSGTRITLTSKEFTLLEFFLRHQGEVLPRSLIASQVWDMNFDSDTNAIDVAVKRLRGKIDNDFEPKLIQTVRGVGYMLEVPDGQ [P0ACZ8]	5.08 ± 1	4.18 ± 0.13	4.01 ± 0.29	4.738 ± 0.0044	3.77 ± 0.45	2.77 ± 0.42	5.62 ± 0.89	8.61 ± 0.84	4.53 ± 0.78	7.44 ± 0.99	4.5 ± 0.3	9.01 ± 0.29
MTLKELLVGFGTQVRSIWMIGLHAFAKRETRMYPEEPVYLPPRYRGRIVLTRDPDGEERCVACNLCAVACPVGCISLQKAETKDGRWYPEFFRINFSRCIFCGLCEEACPTTAIQLTPDFEMGEYKRQDLVYEKEDLLISGPGKYPEYNFYRMAGMAIDGKDKGEAENEAKPIDVKSLLP [P0AFD6]	6.29 ± 0.46	7.36 ± 0.22	6.38 ± 0.14	7.21 ± 0.13	6.351 ± 0.056	3.32 ± 0.17	6.25 ± 0.18	12 ± 1.3	5.99 ± 1.2	15.2 ± 0.83	6 ± 0.08	13.6 ± 2.2
MQTEHVILLNAQGVPTGTLEKYAAHTADTRLHLAFSSWLFNAKGQLLVTRRALSKKAWPGVWTNSVCGHPQLGESNEDAVIRRCRYELGVEITPPESIYPDFRYRATDPSGIVENEVCPVFAARTTSALQINDDEVMDYQWCDLADVLHGIDATPWAFSPWMVMQATNREARKRLSAFTQLK	4.63 ± 0.67	4.86 ± 0.81	4.79 ± 0.39	4.68 ± 0.56	4.42 ± 0.16	3.09 ± 0.08	6.016 ± 0.044	8.96 ± 0.18	4.39	7.89	5.61	13.1 ± 1.7
MKKQTQLLSALALSVGLTLSASFQAVASIPGQVADQAPLPSLAPMLEKVLPAVVSVRVEGTASQGQKIPEEFKKFFGDDLPDQPAQPFEGLGSGVIINASKGYVLTNNHVINQAQKISIQLNDGREFDAKLIGSDDQSDIALLQIQNPSKLTQIAIADSDKLRVGDFAVAVGNPFGLGQTATSGIVSALGRSGLNLEGLENFIQTDASINRGNSGGALLNLNGELIGINTAILAPGGGSVGIGFAIPSNMARTLAQQLIDFGEIKRGLLGIKGTEMSADIAKAFNLDVQRGAFVSEVLPGSGSAKAGVKAGDIITSLNGKPLNSFAELRSRIATTEPGTKVKLGLLRNGKPLEVEVTLDTSTSSSASAEMITPALEGATLSDGQLKDGGKGIKIDEVVKGSPAAQAGLQKDDVIIGVNRDRVNSIAEMRKVLAAKPAIIALQIVRGNESIYLLMR	6.2 ± 0.32		6.47 ± 0.17	6.3328 ± 0.0043	5.56 ± 0.2	3.05 ± 0.14	6.305 ± 0.0077	10 ± 0.31	6.06 ± 0.2	11.7 ± 0.17	5.48 ± 0.15	10.6 ± 0.71
MTLNKTDRIVITLGKQIVHGKYVPGSPLPAEAELCEEFATSRNIIREVFRSLMAKRLIEMKRYRGAFVAPRNQWNYLDTDVLQWVLENDYDPRLISAMSEVRNLVEPAIARWAAERATSSDLAQIESALNEMIANNQDREAFNEADIRYHEAVLQSVHNPVLQQLSIAISSLQRAVFERTWMGDEANMPQTLQEHKALFDAIRHQDGDAAEQAALTMIASSTRRLKEIT	5.42 ± 0.19	5.12 ± 0.7	4.89 ± 0.076	5.07 ± 0.42	4.36 ± 0.15	2.87 ± 0.24	5.54 ± 0.089	9.94 ± 0.54	4.79 ± 0.079	7.99 ± 0.64	4.902 ± 0.047	10.15 ± 0.052
MKLGFIGLGIMGTPMAINLARAGHQLHVTTIGPVADELLSLGAVSVETARQVTEASDIIFIMVPDTPQVEEVLFGENGCTKASLKGKTIVDMSSISPIETKRFARQVNELGGDYLDAPVSGGEIGAREGTLSIMVGGDEAVFERVKPLFELLGKNITLVGGNGDGQTCKVANQIIVALNIEAVSEALLFASKAGADPVRVRQALMGGFASSRILEVHGERMIKRTFNPGFKIALHQKDLNLALQSAKALALNLPNTATCQELFNTCAANGGSQLDHSALVQALELMANHKLA	4.94 ± 0.21	3.37 ± 1.2		3.23							2.4 ± 2	2.16
MEPLREIRNRLLNGWQLSKMHTFEVAARHQSFALAAEELSLSPSAVSHRINQLEEELGIQLFVRSHRKVELTHEGKRVYWALKSSLDTLNQEILDIKNQELSGTLTLYSRPSIAQCWLVPALGDFTRRYPSISLTVLTGNDNVNLQRAGIDLAIYFDDAPSAQLTHHFLMDEEILPVCSPEYAQRHALTNTVINLCHCTLLHDRQAWSNDSGTDEWHSWAQHYAVNLPTSSGIGFDRSDLAVIAAMNHIGVAMGRKRLVQKRLASGELVAPFGDMTVKCHQHYYITTLPGRQWPKIEAFIIWLREQVKTTS	5.88	5.73 ± 0.3	6.65 ± 0.47	7.48 ± 0.075	6.21 ± 1.6	2.74		11 ± 1.1	5.13			
